Measured values as given in patent US20250352667A1.
Each block holds one binder with its values, some of them ahead of it.

How the values were obtained:
[1] = target: KEAP1 (wild-type full-length), His-tagged (human) (UniProt Q14145); assay: AlphaScreen; mean over 9.6, 19.2 and 38.4 nM NRF2; 150 nM His-KEAP1
[2] = target: KEAP1 (wild-type full-length), His-tagged (human) (UniProt Q14145); assay: AlphaScreen; 38.4 nM FLAG-NRF2, 150 nM His-KEAP1; Rep 1; control for I28V
[3] = target: KEAP1 (wild-type full-length), His-tagged (human) (UniProt Q14145); assay: AlphaScreen; NRF2 wt isoform 1 9.6 nM, KEAP1 150 nM; set as the 100 % reference for I86V
[4] = target: KEAP1 (wild-type full-length), His-tagged (human) (UniProt Q14145); assay: AlphaScreen; NRF2 wt isoform 1 9.6 nM, KEAP1 150 nM; set as the 100 % reference for Q75R
[5] = target: KEAP1 (wild-type full-length), His-tagged (human) (UniProt Q14145); assay: AlphaScreen; NRF2 wt isoform 1 19.2 nM, KEAP1 150 nM; set as the 100 % reference for Q75R
[6] = target: KEAP1 (wild-type full-length), His-tagged (human) (UniProt Q14145); assay: AlphaScreen; 307.2 nM FLAG-NRF2, 150 nM His-KEAP1; signal against NRF2 only; control for I28V
[7] = target: KEAP1 (wild-type full-length), His-tagged (human) (UniProt Q14145); assay: AlphaScreen; FLAG-NRF2 wt isoform 1 4.8 nM, His-KEAP1 150 nM; Rep 1; positive control for Q75R
[8] = target: KEAP1 (wild-type full-length), His-tagged (human) (UniProt Q14145); assay: AlphaScreen; FLAG-NRF2 wt isoform 1 19.2 nM, His-KEAP1 150 nM; Rep 1; positive control for I86V
[9] = target: KEAP1 (wild-type full-length), His-tagged (human) (UniProt Q14145); assay: AlphaScreen; mean over 9.6, 19.2 and 38.4 nM NRF2 wt isoform 1, KEAP1 150 nM; reference for I86V
[10] = target: KEAP1 (wild-type full-length), His-tagged (human) (UniProt Q14145); assay: AlphaScreen; FLAG-NRF2 wt isoform 1 9.6 nM, His-KEAP1 150 nM; Repeat 2; positive control for Q75R
[11] = target: KEAP1 (wild-type full-length), His-tagged (human) (UniProt Q14145); assay: AlphaScreen; NRF2 wt isoform 1 4.8 nM, KEAP1 150 nM; signal against NRF2-only control; control for Q75R
[12] = target: KEAP1 (wild-type full-length), His-tagged (human) (UniProt Q14145); assay: AlphaScreen; NRF2 wt isoform 1 19.2 nM, KEAP1 150 nM; signal against NRF2-only control; control for I86V
[13] = target: KEAP1 (wild-type full-length), His-tagged (human) (UniProt Q14145); assay: AlphaScreen, all variants on one plate; lower condition (9.6 nM NRF2), KEAP1 150 nM; the reference itself
[14] = target: KEAP1 (wild-type full-length), His-tagged (human) (UniProt Q14145); assay: AlphaScreen; FLAG-NRF2 I86V 4.8 nM, His-KEAP1 150 nM; Rep 1
[15] = target: KEAP1 (wild-type full-length), His-tagged (human) (UniProt Q14145); assay: AlphaScreen; FLAG-NRF2 I86V 38.4 nM, His-KEAP1 150 nM; Rep 3
[16] = target: KEAP1 (wild-type full-length), His-tagged (human) (UniProt Q14145); assay: AlphaScreen; FLAG-NRF2 I86V 307.2 nM, His-KEAP1 150 nM; Rep 1
[17] = target: KEAP1 (wild-type full-length), His-tagged (human) (UniProt Q14145); assay: AlphaScreen; FLAG-NRF2 I86V 1228.8 nM, His-KEAP1 150 nM; Rep 1
[18] = target: KEAP1 (wild-type full-length), His-tagged (human) (UniProt Q14145); assay: AlphaScreen; FLAG-NRF2 Q75R 307.2 nM, His-KEAP1 150 nM; Rep 1
[19] = target: KEAP1 (wild-type full-length), His-tagged (human) (UniProt Q14145); assay: AlphaScreen; FLAG-NRF2 Q75R 9.6 nM, His-KEAP1 150 nM; Repeat 1
[20] = target: KEAP1 (wild-type full-length), His-tagged (human) (UniProt Q14145); assay: AlphaScreen; FLAG-NRF2 Q75R 38.4 nM, His-KEAP1 150 nM; Repeat 1
[21] = target: KEAP1 (wild-type full-length), His-tagged (human) (UniProt Q14145); assay: AlphaScreen; NRF2 Q75R 2.4 nM, KEAP1 150 nM; signal against NRF2-only control
[22] = target: KEAP1 (wild-type full-length), His-tagged (human) (UniProt Q14145); assay: AlphaScreen; 2.4 nM FLAG-NRF2, 150 nM His-KEAP1; Rep 2
[23] = target: KEAP1 (wild-type full-length), His-tagged (human) (UniProt Q14145); assay: AlphaScreen; 38.4 nM FLAG-NRF2, 150 nM His-KEAP1; Rep 1
[24] = target: KEAP1 (wild-type full-length), His-tagged (human) (UniProt Q14145); assay: AlphaScreen; 1228.8 nM FLAG-NRF2, 150 nM His-KEAP1; Rep 2
[25] = target: KEAP1 (wild-type full-length), His-tagged (human) (UniProt Q14145); assay: AlphaScreen; over 9.6, 19.2 and 38.4 nM NRF2; 150 nM His-KEAP1
[26] = target: KEAP1 (wild-type full-length), His-tagged (human) (UniProt Q14145); assay: AlphaScreen; 2.4 nM FLAG-NRF2, 150 nM His-KEAP1; signal against NRF2 only
[27] = target: KEAP1 (wild-type full-length), His-tagged (human) (UniProt Q14145); assay: AlphaScreen; 19.2 nM FLAG-NRF2, 150 nM His-KEAP1; signal against NRF2 only

Sequence of KEAP1 (wild-type full-length), His-tagged (human) (Q14145 2-624 limits assumed): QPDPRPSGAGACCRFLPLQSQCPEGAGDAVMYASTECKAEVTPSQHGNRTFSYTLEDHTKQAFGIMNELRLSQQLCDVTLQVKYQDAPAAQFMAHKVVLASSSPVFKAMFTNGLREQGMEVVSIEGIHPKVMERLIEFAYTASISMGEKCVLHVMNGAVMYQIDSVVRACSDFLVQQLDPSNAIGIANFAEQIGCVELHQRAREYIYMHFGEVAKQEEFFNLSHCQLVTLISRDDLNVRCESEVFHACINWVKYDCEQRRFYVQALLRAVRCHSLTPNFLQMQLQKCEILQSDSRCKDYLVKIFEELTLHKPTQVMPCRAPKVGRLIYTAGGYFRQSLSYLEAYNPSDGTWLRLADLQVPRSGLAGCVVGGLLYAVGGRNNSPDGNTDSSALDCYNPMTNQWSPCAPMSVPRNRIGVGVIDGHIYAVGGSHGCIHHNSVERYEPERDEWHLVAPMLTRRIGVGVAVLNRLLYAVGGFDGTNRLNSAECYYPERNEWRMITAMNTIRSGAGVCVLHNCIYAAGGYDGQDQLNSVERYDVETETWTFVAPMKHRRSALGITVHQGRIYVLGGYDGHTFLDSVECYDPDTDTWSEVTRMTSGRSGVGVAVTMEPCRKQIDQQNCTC

B3: NRF2 isoform 1 (Q75R full-length), FLAG-tagged (protein)
chain: MMDLELPPPGLPSQQDMDLIDILWRQDIDLGVSREVFDFSQRRKEYELEKQKKLEKERQEQLQKEQEKAFFAQLRLDEETGEFLPIQPAQHIQSETSGSANYSQVAHIPKSDALYFDDCMQLLAQTFPFVDDNEVSSATFQSLVPDIPGHIESPVFIATNQAQSPETSVAQVAPVDLDGMQQDIEQVWEELLSIPELQCLNIENDKLVETTMVPSPEAKLTEVDNYHFYSSIPSMEKEVGNCSPHFLNAFEDSFSSILSTEDPNQLTVNSLNSDATVNTDFGDEFYSAFIAEPSISNSMPSPATLSHSLSELLNGPIDVSDLSLCKAFNQNHPESTAEFNDSDSGISLNTSPSVASPEHSVESSSYGDTLLGLSDSEVEELDSAPGSVKQNGPKTPVHSSGDMVQPLSPSQGQSTHVHDAQCENTPEKELPVSPGHRKTPFTKDKHSSRLEAHLTRDELRAKALHIPFPVEKIINLPVVDFNEMMSKEQFNEAQLALIRDIRRRGKNKVAAQNCRKRKLENIVELEQDLDHLKDEKEKLLKEKGENDKSLHLLKKQLSTLYLEVFSMLRDEDGKPYSPSEYSLQQTRDGNVFLVPKSKKPDVKKN
- A-counts (NRF2 plus KEAP1) [18]: 995 A-counts
- A-counts (NRF2 plus KEAP1) [19]: 1180 A-counts
- A-counts (NRF2 plus KEAP1) [20]: 1200 A-counts
- S/N [21]: 2

B4: NRF2 isoform 1 (I28V full-length), FLAG-tagged (protein)
chain: MMDLELPPPGLPSQQDMDLIDILWRQDVDLGVSREVFDFSQRRKEYELEKQKKLEKERQEQLQKEQEKAFFAQLQLDEETGEFLPIQPAQHIQSETSGSANYSQVAHIPKSDALYFDDCMQLLAQTFPFVDDNEVSSATFQSLVPDIPGHIESPVFIATNQAQSPETSVAQVAPVDLDGMQQDIEQVWEELLSIPELQCLNIENDKLVETTMVPSPEAKLTEVDNYHFYSSIPSMEKEVGNCSPHFLNAFEDSFSSILSTEDPNQLTVNSLNSDATVNTDFGDEFYSAFIAEPSISNSMPSPATLSHSLSELLNGPIDVSDLSLCKAFNQNHPESTAEFNDSDSGISLNTSPSVASPEHSVESSSYGDTLLGLSDSEVEELDSAPGSVKQNGPKTPVHSSGDMVQPLSPSQGQSTHVHDAQCENTPEKELPVSPGHRKTPFTKDKHSSRLEAHLTRDELRAKALHIPFPVEKIINLPVVDFNEMMSKEQFNEAQLALIRDIRRRGKNKVAAQNCRKRKLENIVELEQDLDHLKDEKEKLLKEKGENDKSLHLLKKQLSTLYLEVFSMLRDEDGKPYSPSEYSLQQTRDGNVFLVPKSKKPDVKKN
- A-counts [22]: 696 A-counts
- A-counts [23]: 1690 A-counts
- A-counts [24]: 1030 A-counts
- Standard Deviation (of binding percentage) [25]: 7.2%
- S/N [26]: 2.2
- S/N [27]: 3.2

Continued, values first:

- Average Binding [1]: 100%
- A-counts [2]: 2000 A-counts
- Binding Percentage [3]: 100%
- Binding Percentage [4]: 100%
- Binding Percentage [5]: 100%
- S/N [6]: 1.3
- A-counts (NRF2 plus KEAP1) [7]: 725 A-counts
- A-counts (NRF2 plus KEAP1) [8]: 3300 A-counts
- Average Binding [9]: 100%
- A-counts (NRF2 plus KEAP1) [10]: 900 A-counts
- S/N [11]: 2.5
- S/N [12]: 4.1
- % Disruption in Binding [13]: 0%
B1: NRF2 isoform 1 (wild-type full-length), FLAG-tagged (protein)
chain: MMDLELPPPGLPSQQDMDLIDILWRQDIDLGVSREVFDFSQRRKEYELEKQKKLEKERQEQLQKEQEKAFFAQLQLDEETGEFLPIQPAQHIQSETSGSANYSQVAHIPKSDALYFDDCMQLLAQTFPFVDDNEVSSATFQSLVPDIPGHIESPVFIATNQAQSPETSVAQVAPVDLDGMQQDIEQVWEELLSIPELQCLNIENDKLVETTMVPSPEAKLTEVDNYHFYSSIPSMEKEVGNCSPHFLNAFEDSFSSILSTEDPNQLTVNSLNSDATVNTDFGDEFYSAFIAEPSISNSMPSPATLSHSLSELLNGPIDVSDLSLCKAFNQNHPESTAEFNDSDSGISLNTSPSVASPEHSVESSSYGDTLLGLSDSEVEELDSAPGSVKQNGPKTPVHSSGDMVQPLSPSQGQSTHVHDAQCENTPEKELPVSPGHRKTPFTKDKHSSRLEAHLTRDELRAKALHIPFPVEKIINLPVVDFNEMMSKEQFNEAQLALIRDIRRRGKNKVAAQNCRKRKLENIVELEQDLDHLKDEKEKLLKEKGENDKSLHLLKKQLSTLYLEVFSMLRDEDGKPYSPSEYSLQQTRDGNVFLVPKSKKPDVKKN

- A-counts (NRF2 plus KEAP1) [14]: 2170 A-counts
- A-counts (NRF2 plus KEAP1) [15]: 2930 A-counts
- A-counts (NRF2 plus KEAP1) [16]: 2210 A-counts
- A-counts (NRF2 plus KEAP1) [17]: 1750 A-counts
B2: NRF2 isoform 1 (I86V full-length), FLAG-tagged (protein)
chain: MMDLELPPPGLPSQQDMDLIDILWRQDIDLGVSREVFDFSQRRKEYELEKQKKLEKERQEQLQKEQEKAFFAQLQLDEETGEFLPVQPAQHIQSETSGSANYSQVAHIPKSDALYFDDCMQLLAQTFPFVDDNEVSSATFQSLVPDIPGHIESPVFIATNQAQSPETSVAQVAPVDLDGMQQDIEQVWEELLSIPELQCLNIENDKLVETTMVPSPEAKLTEVDNYHFYSSIPSMEKEVGNCSPHFLNAFEDSFSSILSTEDPNQLTVNSLNSDATVNTDFGDEFYSAFIAEPSISNSMPSPATLSHSLSELLNGPIDVSDLSLCKAFNQNHPESTAEFNDSDSGISLNTSPSVASPEHSVESSSYGDTLLGLSDSEVEELDSAPGSVKQNGPKTPVHSSGDMVQPLSPSQGQSTHVHDAQCENTPEKELPVSPGHRKTPFTKDKHSSRLEAHLTRDELRAKALHIPFPVEKIINLPVVDFNEMMSKEQFNEAQLALIRDIRRRGKNKVAAQNCRKRKLENIVELEQDLDHLKDEKEKLLKEKGENDKSLHLLKKQLSTLYLEVFSMLRDEDGKPYSPSEYSLQQTRDGNVFLVPKSKKPDVKKN
